Results reported in patent publication US20140087995A1 (published 2014).
One block for each binder: values may come before it. Numbered stars: 1 amine (or outer) side, 2 acyl side, 3 side chain; on linkers, the order of the positions; unused ones are H or OH. Bridge positions count the residues as written; N and C are the ends. Side chains are listed from the residue outwards. Ends that are not written are not given here. * marks the point of attachment. C20 diacid = O=C(O)CCCCCCCCCCCCCCCCCCC(=O)*; γGlu = O=C(O)[C@H](CCC(=O)[*:2])N[*:1]

Tests used:
[1] = biological target: T1, human calcitonin receptor (human, UniProt P30988 25-474); assay: ratio IC50 hCTR / IC50 hAmylin-R (reference: human amylin receptor), SPA competition assays
T1 construct: whole, on cells; Assay used cell membranes, not intact cells; also called hCTR; hCT
T1 sequence (looked up): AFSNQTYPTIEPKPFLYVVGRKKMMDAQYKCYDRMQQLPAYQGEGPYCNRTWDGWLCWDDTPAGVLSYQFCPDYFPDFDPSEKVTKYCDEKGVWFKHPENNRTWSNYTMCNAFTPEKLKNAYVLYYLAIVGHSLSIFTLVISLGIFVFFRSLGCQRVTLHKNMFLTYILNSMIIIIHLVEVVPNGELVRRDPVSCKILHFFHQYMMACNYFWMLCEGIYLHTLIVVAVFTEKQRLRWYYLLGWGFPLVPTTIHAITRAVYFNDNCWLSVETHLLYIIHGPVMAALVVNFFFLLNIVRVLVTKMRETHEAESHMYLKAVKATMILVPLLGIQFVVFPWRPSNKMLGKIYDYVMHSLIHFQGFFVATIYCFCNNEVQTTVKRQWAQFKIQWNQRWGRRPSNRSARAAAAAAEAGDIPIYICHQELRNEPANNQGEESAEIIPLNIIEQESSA
Outline: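 IC₅₀ values were derived by one-site competition analysis of SPA counts. Cell membranes (35 ng/μL) with SPA beads were incubated with test compounds for 120 min at 25° C in Hepes buffer, pH 7.4, containing CaCl2, MgCl₂, OA and Tween20.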

[2] = biological target: T1, human calcitonin receptor; assay: SPA competition with 125I-calcitonin on membranes of BHK cells with human calcitonin receptor (Assay VII)
Outline: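 BHK hCTR membranes 35 ng/μL + SPA beads 0.05 mg/well; buffer 50 mM Hepes pH 7.4, 1 mM CaCl2, 5 mM MgCl₂, 0.1% OA, 0.02% Tween20. 120 min, 25° C., shaking. Scintillation count; IC50 by one-site binding competition.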

[3] = biological target: T2, human amylin receptor (amylin 3(a) receptor: human calcitonin receptor with RAMP-3) (human, UniProt P30988 25-474; O60896 24-148); assay: SPA competition with 125I-rat amylin on membranes of BHK cells with human calcitonin receptor and RAMP-3 (Assay V)
T2 construct: whole, on cells; Assay used cell membranes of the Amylin 3(a)/CRE-luc BHK cells, not intact cells; also called hAmylin-R; hAmylinR
T2 sequence (looked up) 1: T1 sequence (looked up)
T2 sequence (looked up) 2: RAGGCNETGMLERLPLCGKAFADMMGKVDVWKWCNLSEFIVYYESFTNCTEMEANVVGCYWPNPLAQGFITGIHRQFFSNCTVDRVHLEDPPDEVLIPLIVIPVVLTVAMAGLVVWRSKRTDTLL
Outline: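 Cell membranes were prepared by homogenisation in Na-HEPES/EDTA buffer, pH 7.4, and stored at −80° C. They were then coupled to SPA beads at 35 ng/μL final and exposed to compounds in assay buffer containing CaCl2, MgCl₂, OA and Tween20. After 120 min at 25° C, plates were counted and IC₅₀ derived.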

- Ratio hCT/hAmylin binding [1]: 29.1
- IC50 [2]: 15.2 nM
- IC50 [3]: 0.525 nM
B1: N^ε1-[(4S)-4-carboxy-4-[[(4S)-4-carboxy-4-(19-carboxynonadecanoylamino)butanoyl]amino]butanoyl]-[Glu14,Arg17,Pro21,Pro27,His34,Glu35]-h-amylin (peptide)
peptide: K([γGlu-γGlu-C20 diacid])CNTATCATQRLAEFLRHSSPNFGAIPSSTNVGHETY-NH2
modifications: disulfide 2-7; N-terminus assumed
SMILES: CC[C@H](C)[C@H](NC(=O)[C@H](C)NC(=O)CNC(=O)[C@H](Cc1ccccc1)NC(=O)[C@H](CC(N)=O)NC(=O)[C@@H]1CCCN1C(=O)[C@H](CO)NC(=O)[C@H](CO)NC(=O)[C@H](Cc1c[nH]cn1)NC(=O)[C@H](CCCNC(=N)N)NC(=O)[C@H](CC(C)C)NC(=O)[C@H](Cc1ccccc1)NC(=O)[C@H](CCC(=O)O)NC(=O)[C@H](C)NC(=O)[C@H](CC(C)C)NC(=O)[C@H](CCCNC(=N)N)NC(=O)[C@H](CCC(N)=O)NC(=O)[C@@H](NC(=O)[C@H](C)NC(=O)[C@@H]1CSSC[C@H](NC(=O)[C@@H](N)CCCCNC(=O)CC[C@H](NC(=O)CC[C@H](NC(=O)CCCCCCCCCCCCCCCCCCC(=O)O)C(=O)O)C(=O)O)C(=O)N[C@@H](CC(N)=O)C(=O)N[C@@H]([C@@H](C)O)C(=O)N[C@@H](C)C(=O)N[C@@H]([C@@H](C)O)C(=O)N1)[C@@H](C)O)C(=O)N1CCC[C@H]1C(=O)N[C@@H](CO)C(=O)N[C@@H](CO)C(=O)N[C@H](C(=O)N[C@@H](CC(N)=O)C(=O)N[C@H](C(=O)NCC(=O)N[C@@H](Cc1c[nH]cn1)C(=O)N[C@@H](CCC(=O)O)C(=O)N[C@H](C(=O)N[C@@H](Cc1ccc(O)cc1)C(N)=O)[C@@H](C)O)C(C)C)[C@@H](C)O

- Ratio hCT/hAmylin binding [1]: 145
- IC50 [2]: 26 nM
- IC50 [3]: 0.179 nM
B2: N^ε1-[(4S)-4-carboxy-4-[[(4S)-4-carboxy-4-(19-carboxynonadecanoylamino)butanoyl]amino]butanoyl]-[His14,Arg17,Pro21,Pro27]-h-amylin (peptide)
peptide: K([γGlu-γGlu-C20 diacid])CNTATCATQRLAHFLRHSSPNFGAIPSSTNVGSNTY-NH2
modifications: disulfide 2-7; N-terminus assumed
SMILES: CC[C@H](C)[C@H](NC(=O)[C@H](C)NC(=O)CNC(=O)[C@H](Cc1ccccc1)NC(=O)[C@H](CC(N)=O)NC(=O)[C@@H]1CCCN1C(=O)[C@H](CO)NC(=O)[C@H](CO)NC(=O)[C@H](Cc1c[nH]cn1)NC(=O)[C@H](CCCNC(=N)N)NC(=O)[C@H](CC(C)C)NC(=O)[C@H](Cc1ccccc1)NC(=O)[C@H](Cc1c[nH]cn1)NC(=O)[C@H](C)NC(=O)[C@H](CC(C)C)NC(=O)[C@H](CCCNC(=N)N)NC(=O)[C@H](CCC(N)=O)NC(=O)[C@@H](NC(=O)[C@H](C)NC(=O)[C@@H]1CSSC[C@H](NC(=O)[C@@H](N)CCCCNC(=O)CC[C@H](NC(=O)CC[C@H](NC(=O)CCCCCCCCCCCCCCCCCCC(=O)O)C(=O)O)C(=O)O)C(=O)N[C@@H](CC(N)=O)C(=O)N[C@@H]([C@@H](C)O)C(=O)N[C@@H](C)C(=O)N[C@@H]([C@@H](C)O)C(=O)N1)[C@@H](C)O)C(=O)N1CCC[C@H]1C(=O)N[C@@H](CO)C(=O)N[C@@H](CO)C(=O)N[C@H](C(=O)N[C@@H](CC(N)=O)C(=O)N[C@H](C(=O)NCC(=O)N[C@@H](CO)C(=O)N[C@@H](CC(N)=O)C(=O)N[C@H](C(=O)N[C@@H](Cc1ccc(O)cc1)C(N)=O)[C@@H](C)O)C(C)C)[C@@H](C)O
notes: also called compound 92

- Ratio hCT/hAmylin binding [1]: 27.3
- IC50 [2]: 10.3 nM
- IC50 [3]: 0.377 nM
Binder: K([γGlu-γGlu-C20 diacid])CNTATCATQRLAEFLRHSSPNFGAIPSSTNVGPHTY-NH2 (disulfide 2-7 (inferred))

- Ratio hCT/hAmylin binding [1]: 22.6
- IC50 [2]: 1.56 nM
- IC50 [3]: 0.069 nM
Binder: K([γGlu-γGlu-C20 diacid])CNTATCATQRLAEFLRHSSPNFGAILSSTPVGPETY-NH2 (disulfide 2-7 (inferred))

- Ratio hCT/hAmylin binding [1]: 35.6
- IC50 [2]: 22.5 nM
- IC50 [3]: 0.633 nM
B3: N^ε1-[(4S)-4-carboxy-4-[[(4S)-4-carboxy-4-(19-carboxynonadecanoylamino)butanoyl]amino]butanoyl]-[Glu14,Arg17,Pro21,Pro27,His34]-h-amylin (peptide)
peptide: K([γGlu-γGlu-C20 diacid])CNTATCATQRLAEFLRHSSPNFGAIPSSTNVGHNTY-NH2
modifications: disulfide 2-7; N-terminus assumed
SMILES: CC[C@H](C)[C@H](NC(=O)[C@H](C)NC(=O)CNC(=O)[C@H](Cc1ccccc1)NC(=O)[C@H](CC(N)=O)NC(=O)[C@@H]1CCCN1C(=O)[C@H](CO)NC(=O)[C@H](CO)NC(=O)[C@H](Cc1c[nH]cn1)NC(=O)[C@H](CCCNC(=N)N)NC(=O)[C@H](CC(C)C)NC(=O)[C@H](Cc1ccccc1)NC(=O)[C@H](CCC(=O)O)NC(=O)[C@H](C)NC(=O)[C@H](CC(C)C)NC(=O)[C@H](CCCNC(=N)N)NC(=O)[C@H](CCC(N)=O)NC(=O)[C@@H](NC(=O)[C@H](C)NC(=O)[C@@H]1CSSC[C@H](NC(=O)[C@@H](N)CCCCNC(=O)CC[C@H](NC(=O)CC[C@H](NC(=O)CCCCCCCCCCCCCCCCCCC(=O)O)C(=O)O)C(=O)O)C(=O)N[C@@H](CC(N)=O)C(=O)N[C@@H]([C@@H](C)O)C(=O)N[C@@H](C)C(=O)N[C@@H]([C@@H](C)O)C(=O)N1)[C@@H](C)O)C(=O)N1CCC[C@H]1C(=O)N[C@@H](CO)C(=O)N[C@@H](CO)C(=O)N[C@H](C(=O)N[C@@H](CC(N)=O)C(=O)N[C@H](C(=O)NCC(=O)N[C@@H](Cc1c[nH]cn1)C(=O)N[C@@H](CC(N)=O)C(=O)N[C@H](C(=O)N[C@@H](Cc1ccc(O)cc1)C(N)=O)[C@@H](C)O)C(C)C)[C@@H](C)O
notes: also called compound 87

- Ratio hCT/hAmylin binding [1]: 53.6
- IC50 [2]: 17.5 nM
- IC50 [3]: 0.326 nM
B4: N^ε1-[(4S)-4-carboxy-4-[[(4S)-4-carboxy-4-(19-carboxynonadecanoylamino)butanoyl]amino]butanoyl]-[Glu14,Arg17,Pro21,Pro27,Pro34,Arg35]-h-amylin (peptide)
peptide: K([γGlu-γGlu-C20 diacid])CNTATCATQRLAEFLRHSSPNFGAIPSSTNVGPRTY-NH2
modifications: disulfide 2-7; N-terminus assumed
SMILES: CC[C@H](C)[C@H](NC(=O)[C@H](C)NC(=O)CNC(=O)[C@H](Cc1ccccc1)NC(=O)[C@H](CC(N)=O)NC(=O)[C@@H]1CCCN1C(=O)[C@H](CO)NC(=O)[C@H](CO)NC(=O)[C@H](Cc1c[nH]cn1)NC(=O)[C@H](CCCNC(=N)N)NC(=O)[C@H](CC(C)C)NC(=O)[C@H](Cc1ccccc1)NC(=O)[C@H](CCC(=O)O)NC(=O)[C@H](C)NC(=O)[C@H](CC(C)C)NC(=O)[C@H](CCCNC(=N)N)NC(=O)[C@H](CCC(N)=O)NC(=O)[C@@H](NC(=O)[C@H](C)NC(=O)[C@@H]1CSSC[C@H](NC(=O)[C@@H](N)CCCCNC(=O)CC[C@H](NC(=O)CC[C@H](NC(=O)CCCCCCCCCCCCCCCCCCC(=O)O)C(=O)O)C(=O)O)C(=O)N[C@@H](CC(N)=O)C(=O)N[C@@H]([C@@H](C)O)C(=O)N[C@@H](C)C(=O)N[C@@H]([C@@H](C)O)C(=O)N1)[C@@H](C)O)C(=O)N1CCC[C@H]1C(=O)N[C@@H](CO)C(=O)N[C@@H](CO)C(=O)N[C@H](C(=O)N[C@@H](CC(N)=O)C(=O)N[C@H](C(=O)NCC(=O)N1CCC[C@H]1C(=O)N[C@@H](CCCNC(=N)N)C(=O)N[C@H](C(=O)N[C@@H](Cc1ccc(O)cc1)C(N)=O)[C@@H](C)O)C(C)C)[C@@H](C)O
notes: also called compound 110

- Ratio hCT/hAmylin binding [1]: 45.3
- IC50 [2]: 3.44 nM
- IC50 [3]: 0.076 nM
B5: N^ε1-[(4S)-4-carboxy-4-[[(4S)-4-carboxy-4-(19-carboxynonadecanoylamino)butanoyl]amino]butanoyl]-[Ser14,Arg17,Pro21,Pro27,Pro34,Glu35]-h-amylin (peptide)
peptide: K([γGlu-γGlu-C20 diacid])CNTATCATQRLASFLRHSSPNFGAIPSSTNVGPETY-NH2
modifications: disulfide 2-7; N-terminus assumed
SMILES: CC[C@H](C)[C@H](NC(=O)[C@H](C)NC(=O)CNC(=O)[C@H](Cc1ccccc1)NC(=O)[C@H](CC(N)=O)NC(=O)[C@@H]1CCCN1C(=O)[C@H](CO)NC(=O)[C@H](CO)NC(=O)[C@H](Cc1c[nH]cn1)NC(=O)[C@H](CCCNC(=N)N)NC(=O)[C@H](CC(C)C)NC(=O)[C@H](Cc1ccccc1)NC(=O)[C@H](CO)NC(=O)[C@H](C)NC(=O)[C@H](CC(C)C)NC(=O)[C@H](CCCNC(=N)N)NC(=O)[C@H](CCC(N)=O)NC(=O)[C@@H](NC(=O)[C@H](C)NC(=O)[C@@H]1CSSC[C@H](NC(=O)[C@@H](N)CCCCNC(=O)CC[C@H](NC(=O)CC[C@H](NC(=O)CCCCCCCCCCCCCCCCCCC(=O)O)C(=O)O)C(=O)O)C(=O)N[C@@H](CC(N)=O)C(=O)N[C@@H]([C@@H](C)O)C(=O)N[C@@H](C)C(=O)N[C@@H]([C@@H](C)O)C(=O)N1)[C@@H](C)O)C(=O)N1CCC[C@H]1C(=O)N[C@@H](CO)C(=O)N[C@@H](CO)C(=O)N[C@H](C(=O)N[C@@H](CC(N)=O)C(=O)N[C@H](C(=O)NCC(=O)N1CCC[C@H]1C(=O)N[C@@H](CCC(=O)O)C(=O)N[C@H](C(=O)N[C@@H](Cc1ccc(O)cc1)C(N)=O)[C@@H](C)O)C(C)C)[C@@H](C)O
notes: also called compound 120
